Test results as given in patent publication US20080268549A1, “THIOFLAVIN T METHOD FOR DETECTION OF AMYLOID POLYPEPTIDE FIBRIL AGGREGATION” (priority 2007, published 2008).
Entries after “also recorded” stand apart in the source; their conditions may differ.

Tests used:
Aβ (1-40) = target: T1, Aβ (1-40) (Homo sapiens, UniProt P05067); assay: Circular dichroism spectra of Aβ secondary structure
T1 construct: β-amyloid peptide (1-40) can be obtained from Biosource; purchased Biosource (Camarillo, Calif.)
Method: CD is routinely used to monitor changes in secondary structure (Wang et al., 2005). In order to verify that CLN does indeed cause a shift in secondary structure, a CD spectra of Aβ treated with CLN and control were taken at 24 and 48 h. For these experiments, a 10 μM solution of Aβ (1-40) (first solubilized in base as in previous examples) was prepared in 50 mM Tris buffer, pH 7.4, with and without 50 nM CLN and ThT. Circular dichroism (CD) spectra of the Aβ (1-40) peptide solutions were recorded using a Jasco J-715 CD spectropolarimeter at 25° C. using a bandwidth of 1.0 nm, a sensitivity of 0.5 nm and a recording speed of 50 nm/min. The results were plotted as ellipticity (mdeg) versus wavelength (nm).

β-amyloid peptide (1-40) = target: T2, β-amyloid peptide (1-40) (Homo sapiens, UniProt P05067); assay: Thioflavin T fluorescence assay of Aβ fibril aggregation; assay type: biochemical; details: FIG. 5
T2 construct: β-amyloid peptide (1-40) can be obtained from Biosource; purchased Biosource (Camarillo, Calif.)
Method: (1) Prepare a stock ThT solution (1 mg/ml; 3.14 mM) in distilled, deionized water, aliquot into small samples and store long term at −20° C. in the dark. Thaw frozen samples only once and discard the remainder. Add 1.6 μl of ThT solution to 1.0 ml of 50 mM Tris buffer, pH 7.4 to yield a final 5.0 μM ThT solution.
(2) β-amyloid peptide (1-40) can be obtained from Biosource (Camarillo, Calif.), CLN from ReGen Therapeutics Plc (London, UK) and Thioflavin T from Sigma (St. Louis, Mo.). Prepare a stock solution of β-amyloid (by dissolving in 10 mM NaOH (0.5 mg/ml) and stored at −70° C. until used. Aβ in base is stable for at least 3 weeks frozen. Add 5.0 μl (2.5 μg) of β-amyloid stock solution to 1.0 ml of ThT/Tris buffer solution. It is preferable to avoid any contact with metal when preparing a amyloid solution since metal can oxidize the peptide.
(3) Measure the fluorescence intensity of 1.0 ml of Aβ/ThT/Tris solution using an excitation wavelength of 440 nm and an emission wavelength of 482 nm. A control solution of Aβ/Tris solution, without ThT can be used as a control. The fluorescence intensity above the control is used as a measure of fibril content.
(4) If the assay is intended to measure the change in Aβ aggregation and used to quantitate the effect of test agents, prepare a second sample containing the drug or agent as in step 2. Preincubate the samples for the appropriate length of time (usually days to weeks) required to yield a change in fluorescence intensity.
Samples of Aβ in base were prepared as described in Example 1. ThT in Tris buffer was then added to the sample together with CLN at a concentration range of 2.5-10 nM and was preincubated for either 1 or 2 days and the fluorescence intensity measured following the above procedure. […] After a 2-day treatment with 10 nM CLN, approximately 50% of the Aβ fibrils are dissolved.

T2 sequence (P05067 672-711 limits assumed): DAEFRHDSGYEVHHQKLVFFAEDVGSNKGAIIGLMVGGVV
T1 sequence (P05067 672-711 limits assumed): as above

| Compound | effect of ThT on conformation of CLN treated Aβ samples by CD spectra (Aβ (1-40); 10 μM Aβ (1-40) with 50 nM CLN and ThT, FIG. 6B) | Aβ fibrils dissolved (β-amyloid peptide (1-40); 10 nM CLN, 2-day treatment) | decrease in Aβ aggregation (ThT fluorescence), maximum (β-amyloid peptide (1-40); 10 nM CLN, at 2 days) [%] | effect on Aβ aggregation (ThT fluorescence) (β-amyloid peptide (1-40); CLN 2.5-10 nM, preincubated 1 or 2 days) | effect on secondary structure (conformation) of Aβ by CD spectra (Aβ (1-40); 10 μM Aβ (1-40), 50 nM CLN, 50 mM Tris pH 7.4, 24 and 48 h, FIG. 6A) |
| --- | --- | --- | --- | --- | --- |
| Cc1ccc2c(c1)sc(-c1ccc(N(C)C)cc1)[n+]2C.[Cl-] [ThT, Thioflavin T] | did not have an effect | – | – | – | – |
| colostrinin [CLN] | – | approximately 50% | 40 | dose-dependent decrease | shift from β-sheet to α-helix; also recorded: shifted to a random-coil/α-helical rich conformation |
